Some results are limits rather than exact numbers.

The text below walks through data of patent US20180111972A1 (Stanford University, published 2018).

The labels stand for the following.
T1: scPDGF, yeast-displayed (human)
T1 chain: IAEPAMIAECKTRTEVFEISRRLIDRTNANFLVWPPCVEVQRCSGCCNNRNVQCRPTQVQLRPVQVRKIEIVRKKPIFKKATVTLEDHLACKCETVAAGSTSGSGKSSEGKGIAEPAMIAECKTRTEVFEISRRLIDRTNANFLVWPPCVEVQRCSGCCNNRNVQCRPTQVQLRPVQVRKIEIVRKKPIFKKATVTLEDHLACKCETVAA

B1: PVRF (PV6 with K87R and I182F), yeast-displayed (designed binder)
chain: IAEPAMIAECHPIETLVDIFQEYPDEIEYIFKPSCVPLMRCGGCCNNRNVQCRPTEESNITMQIMRIKPHQGQHIGEMSFLQHNKCRCETVAAGSTSGSGKSSEGKGEVVKFMDVYQRSYCKTRTEVFEISRRLIDRTNANFLVWPPCVEVQRCSGCCNDEGLECVPTQVQLRPVQVRKIEFVRKKPIFKKATVTLEDHLACECRPKKD
B2: scPDGF, single-chain version of wild-type PDGF-BB, soluble, FLAG and hexahistidine tags (ligand)
chain: T1 chain
B3: PDGFRβ-His (residues 1-314 of PDGFR-β with C-terminal hexahistidine tag) (receptor)
chain: LVVTPPGPELVLNVSSTFVLTCSGSAPVVWERMSQEPPQEMAKAQDGTFSSVLTLTNLTGLDTGEYFCTHNDSRGLETDERKRLYIFVPDPTVGFLPNDAEELFIFLTEITEITIPCRVTDPQLVVTLHEKKGDVALPVPYDHQRGFSGIFEDRSYICKTTIGDREVDSDAYYVYRLQVSSINVSVNAVQTVVRQGENITLMCIVIGNEVVNFEWTYPRKESGRLVEPVTDFLLDMPYHIRSILHIPSAELEDSGTYTCNVTESVNDHQDEKAINITVVESGHHHHHH
notes: range 1-314; Monovalent form, expressed in FreeStyle 293-F cells; also called PDGRβ-His; PDGFR-His
B4: PDGFRβ-Fc (residues 1-314 of PDGFR-β fused to the Fc region of mouse IgG2a) (Fc fusion)
chain: LVVTPPGPELVLNVSSTFVLTCSGSAPVVWERMSQEPPQEMAKAQDGTFSSVLTLTNLTGLDTGEYFCTHNDSRGLETDERKRLYIFVPDPTVGFLPNDAEELFIFLTEITEITIPCRVTDPQLVVTLHEKKGDVALPVPYDHQRGFSGIFEDRSYICKTTIGDREVDSDAYYVYRLQVSSINVSVNAVQTVVRQGENITLMCIVIGNEVVNFEWTYPRKESGRLVEPVTDFLLDMPYHIRSILHIPSAELEDSGTYTCNVTESVNDHQDEKAINITVVESG
notes: range 1-314; Expressed in FreeStyle 293-F cells; also called PDGRβ-Fc; PDGFR-Fc; not shown: Fc region of mouse IgG2a

Assay [1] deals with T2, soluble PDGFRβ (Fc or His format not stated for the experiment) (human, UniProt P09619 33-532).
T2 construct: extracellular domain
In words: yeast surface display, flow cytometry titration of soluble receptor; panel 'PDGFR binding', Fc or His form not given. (In general: A flow cytometer gives signals particle by particle.)

Assay [2] addresses T3, VEGFR2-Fc (R&D Systems) (human, UniProt P35968 20-764).
T3 construct: extracellular domain; Bought reagent; also called VEGFR-Fc; not shown: Fc part, detected with anti-human-IgG (Fc specific)
In words: yeast surface display, flow cytometry: VEGFR2-Fc bound, with and without pre-incubation with 100 nM PDGFRβ-Fc. How it is done:
(§1) Cells were incubated in large enough volumes to avoid ligand depletion and appropriate time to reach equilibrium. During the last hour of incubation, yeast were incubated with 1:250 dilution of chicken anti-c-Myc (Invitrogen) in PBSA. […] Yeast were washed, pelleted, and resuspended in PBSA immediately before analysis by flow cytometry using BD FACSCalibur or BD Accuri C6. Flow cytometry data were analyzed using FlowJo (v7.6.1 and v10, Treestar) or BD Accuri C6 software. Statistical analysis was performed using GraphPad Prism 6.

For assay [3], the target named is B3. In words: yeast surface display, flow cytometry titration of PDGFRβ-His (panel 'PDGFRβ binding'). How it is done:
as §1

In assay [4] the target is T2, soluble PDGFRβ (Fc or His format not …). Put plainly: yeast surface display titration; table under the panel 'PDGFR binding', Fc or His form not given.
Assay [5] deals with B3. Put plainly: yeast surface display titration, flow cytometry. How it is done: as §1
Assay [6] deals with B3. In words: KinExA, equilibrium titration in solution, n-curve analysis. How it is done:
For KinExA measurements, a constant amount of PDGF/VEGF ligand is titrated with differing concentrations of PDGRβ-His or VEGFR2-His. The solutions are incubated for an appropriate amount of time to allow the ligand-receptor binding reaction to reach equilibrium. The solution is then briefly exposed to a solid support containing immobilized PDGFR or VEGFR, which captures unbound ligand. The amount of ligand bound to the solid support is then detected using a fluorescently-labeled antibody. […] For each binding interaction measured, curves for two concentrations of the constant ligand are performed. By performing two experiments with fixed ligand concentrations above and below the Kd, and fitting both sets of data with a nonlinear regression analysis, a more accurate measurement for the affinity can be obtained.
Kinetic Exclusion Assay (KinExA). All experiments were performed on a KinExA 3200 instrument with siliconized flow cell (Sapidyne Instruments Inc). […] 30 μg of receptor was incubated in 1 ml of 50 mM sodium bicarbonate, 0.5 M sodium citrate buffer, pH 8.3, for 2 hr at room temperature with rocking. Beads were allowed to settle by gravity and liquid removed. Beads were blocked by incubating in 1 ml of 10 mg/ml BSA in 1 M Tris buffer, pH 8.0, for 1 hr at room temperature with rocking, and stored in blocking buffer at 4° C. for up to one week until use. Running buffer contained PBS with 10 mM imidazole and 0.02% sodium azide. Samples were prepared in running buffer with 1 mg/ml BSA. Binding reactions were prepared with a fixed concentration of PDGF/VEGF ligands and dilution series of PDGFR or VEGFR. Captured PDGF/VEGF ligands were detected using a Dylight 649-conjugated anti-FLAG antibody (Rockland) at 1:1000 dilution in sample buffer. Kinetic experiments were performed with the “Kinetics Injection” method defined in the KinExA software. Data were analyzed with KinExA Pro Software.
(In general: In KinExA the mixture passes briefly over coated beads that capture the unbound partner.)

The target of assay [7] is B3. In words: KinExA Kinetics Injection; could not be accurately determined because of the fast equilibrium time.
Assay [8] addresses B3. Put plainly: KinExA; calculated, could not be accurately determined because of the fast equilibrium time.
Assay [9] deals with PDGFRβ on DiscoveRx PathHunter U2OS PDGFRβ reporter cells (UniProt P09619 33-1106, limits assumed). Put plainly: cell-based or functional assay.
Assay [10] deals with T1, scPDGF, yeast-displayed. In words: yeast surface display of scPDGF, flow cytometry titration of PDGFRβ-His, anti-His detection. How it is done:
as §1
(§2) Bound protein was detected using fluorescently-labeled anti-His and anti-mouse-Fc antibodies.

For assay [11], the target named is T1, scPDGF, yeast-displayed. Put plainly: yeast surface display of scPDGF, flow cytometry titration of PDGFRβ-Fc, anti-mouse-Fc detection. How it is done:
as §1, §2

The target in assay [12] is B2. In words: cell-based or functional assay.

T3 sequence (P35968 20-764): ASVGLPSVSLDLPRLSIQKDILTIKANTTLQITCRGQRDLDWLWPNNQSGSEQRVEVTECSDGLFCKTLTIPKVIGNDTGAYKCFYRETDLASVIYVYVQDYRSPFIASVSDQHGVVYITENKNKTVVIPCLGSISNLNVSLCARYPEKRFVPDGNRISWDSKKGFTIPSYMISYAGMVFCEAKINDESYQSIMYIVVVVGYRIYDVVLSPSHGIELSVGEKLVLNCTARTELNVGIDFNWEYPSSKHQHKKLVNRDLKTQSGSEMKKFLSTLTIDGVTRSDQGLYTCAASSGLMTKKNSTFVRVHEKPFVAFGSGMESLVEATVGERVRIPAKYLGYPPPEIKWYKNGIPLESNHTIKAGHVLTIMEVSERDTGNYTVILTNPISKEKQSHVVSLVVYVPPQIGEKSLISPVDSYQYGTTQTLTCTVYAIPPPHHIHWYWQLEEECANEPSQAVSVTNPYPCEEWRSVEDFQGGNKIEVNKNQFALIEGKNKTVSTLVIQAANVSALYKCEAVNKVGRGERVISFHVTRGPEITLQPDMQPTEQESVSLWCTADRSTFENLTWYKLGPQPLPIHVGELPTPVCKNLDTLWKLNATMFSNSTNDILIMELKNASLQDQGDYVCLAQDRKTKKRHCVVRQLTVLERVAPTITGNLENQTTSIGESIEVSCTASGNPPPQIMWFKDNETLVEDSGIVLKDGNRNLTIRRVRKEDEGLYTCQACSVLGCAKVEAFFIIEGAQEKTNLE

A word on the EC50 (read off the curve): it is the concentration needed to bring the measured effect to its halfway point. A low value points to a more potent agent. As usually defined, the Kd is the concentration at which binding is half-saturated. Turning to B1, the figures for the “EC50 (read off the curve)” value in [1] and in [3] were about 0.2 nM and about 0.3 nM, respectively. In addition, the binding result in [2] is “binds”. Further, the Kd in [4] turned out to be 0.24 nM; in [5], 0.37 nM.
One may read the kon as the second-order rate constant of association. As a reminder, the koff is the first-order rate constant of dissociation. As for B2, the Kd in [6] turned out to be 18 nM. The molecule also yielded a kon in assay [7] of over 1.7e+07 M⁻¹ s⁻¹. The koff in assay [8] was over 0.31 s⁻¹. Moreover, in [9], the “EC50 of receptor activation, DiscoveRx PathHunter PDGFR reporter cells, chemiluminescence” value is 0.14 nM.
For B3, the “EC50 (read off the curve)” value in [10] was about 300 nM.
Take B4: in assay [11], the “EC50 (read off the curve)” value was about 0.03 nM. Further, in assay [12], the “IC50 of inhibition of NIH/3T3 proliferation stimulated by scPDGF, alamarBlue” value turned out to be 8.7 nM and the “IC50 of inhibition of stimulation by 100 pM scPDGF, PathHunter reporter cells” value was 130 pM.
